Laboratory results published in publication PMC5903163.

Molecular target: glucose-regulated protein 78 (GRP78) (Mesocricetus auratus (endogenous in BHK-21)) (UniProt P07823)
Chain of UniProt P07823 (P07823 19-654): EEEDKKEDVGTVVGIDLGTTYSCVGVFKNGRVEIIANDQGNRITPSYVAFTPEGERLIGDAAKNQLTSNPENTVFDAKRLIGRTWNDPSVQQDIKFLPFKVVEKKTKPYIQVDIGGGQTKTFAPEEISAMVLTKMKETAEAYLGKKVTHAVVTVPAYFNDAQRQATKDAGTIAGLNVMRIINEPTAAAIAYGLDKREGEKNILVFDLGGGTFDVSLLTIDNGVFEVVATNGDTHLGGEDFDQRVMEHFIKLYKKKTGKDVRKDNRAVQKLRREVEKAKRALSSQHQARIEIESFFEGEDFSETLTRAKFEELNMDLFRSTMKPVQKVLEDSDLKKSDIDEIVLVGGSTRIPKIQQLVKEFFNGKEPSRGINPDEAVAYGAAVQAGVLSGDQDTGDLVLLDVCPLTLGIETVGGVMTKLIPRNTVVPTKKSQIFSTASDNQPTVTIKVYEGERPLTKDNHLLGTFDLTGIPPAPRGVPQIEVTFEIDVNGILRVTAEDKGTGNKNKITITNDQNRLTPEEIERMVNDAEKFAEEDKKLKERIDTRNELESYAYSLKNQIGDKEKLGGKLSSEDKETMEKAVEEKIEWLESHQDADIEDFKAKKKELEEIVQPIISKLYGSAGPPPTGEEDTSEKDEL

“Tembusu virus (TMUV) JS804, whole virus particle (complex)” was tested, and the TMUV RNA (qRT-PCR, 24 h) in BHK-21 cells pre-incubated with 100 μg/ml anti-GRP78 N-terminal antibody (ab32618) before infection, against rabbit IgG treated cells was 50%.
